Results taken from patent US20110047631A1, “HEAT SHOCK PROTEIN DEFICIENCIES AS MODEL SYSTEMS FOR BRAIN PATHOLOGY AND CANCER” (Medical College of Georgia Research Institute Inc., priority 2009, published 2011).

Molecular target: tau (total tau), endogenous mouse protein in brain extracts (mouse) (UniProt P10637)
Test: immunoprecipitation with antibody to total tau, immunoblot for Chip; 8 months old against 6 weeks old mice

Sequence of tau (total tau), endogenous mouse protein in brain extracts (mouse) (P10637 other isoform, or with tags, fused parts or gaps limits assumed): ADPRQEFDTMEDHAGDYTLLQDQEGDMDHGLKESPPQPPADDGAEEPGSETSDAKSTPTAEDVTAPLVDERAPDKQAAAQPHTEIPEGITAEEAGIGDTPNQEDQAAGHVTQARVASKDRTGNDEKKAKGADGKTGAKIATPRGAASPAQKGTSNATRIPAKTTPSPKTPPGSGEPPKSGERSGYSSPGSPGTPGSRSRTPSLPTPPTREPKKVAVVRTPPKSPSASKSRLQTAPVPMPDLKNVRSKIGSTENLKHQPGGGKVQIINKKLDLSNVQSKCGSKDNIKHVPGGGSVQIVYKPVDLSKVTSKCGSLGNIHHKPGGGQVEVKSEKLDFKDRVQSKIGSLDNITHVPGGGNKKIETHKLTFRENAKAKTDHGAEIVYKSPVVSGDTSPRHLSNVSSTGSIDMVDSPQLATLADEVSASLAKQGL

fold amount of Chip co-immunoprecipitated with tau in aged brain extracts: 2 fold
Substance: Chip (C-terminal Hsp70-interacting protein) ubiquitin ligase, endogenous mouse protein in brain extracts (from UniProt Q9WUD1 1-304) (enzyme)
